T1: rhIL-4R-Fc (ILR-H5253, Acro) (human, UniProt P24394 26-232)
T1 sequence: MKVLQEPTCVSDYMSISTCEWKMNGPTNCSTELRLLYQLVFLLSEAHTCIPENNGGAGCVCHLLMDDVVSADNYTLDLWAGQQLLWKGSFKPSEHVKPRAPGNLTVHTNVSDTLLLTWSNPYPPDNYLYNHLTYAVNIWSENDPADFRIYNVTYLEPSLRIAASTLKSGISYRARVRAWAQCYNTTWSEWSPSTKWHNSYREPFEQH

B1: 25G7-(scdsFv)-PE38KDEL (scFv)
scFv: EVQLVESGGGLVQPGGSLRLSCAASGFTFSDYGMHWVRQAPGKCLEWVAFISSGSSIIYYADIVKGRSTISRDNAKNTLYLQMNSLRAEDTAVYYCTRGNKRGFFDYWGQGTLVTVSSGGGGSGGGGSGGGGSEIVLTQSPATLSLSPGERATLSCRASSSVPYMYWYQQKPGQAPRLLIYLTSNLASGIPARFSGSGSGTDFTLTISSLEPEDFAVYYCQQWRAYPPMLTFGCGTKVEIKASGGPEEGGSLAALTAHQACHLPLETFTRHRQPRGWEQLEQCGYPVQRLVALYLAARLSWNQVDQVIRNALASPGSGGDLGEAIREQPEQARLALTLAAAESERFVRQGTGNDEAGAANGPADSGDALLERNYPTGAEFLGDGGDVSFSTRGTQNWTVERLLQAHRQLEERGYVFVGYHGTFLEAAQSIVFGGVRARSQDLDAIWRGFYIAGDPALAYGYAQDQEPDARGRIRNGALLRVYVPRSSLPGFYRTSLTLAAPEAAGEVERLIGHPLPLRLDAITGPEEEGGRLETILGWPLAERTVVIPSAIPTDPRNVGGDLDPSSIPDKEQAISALPDYASQPGKPPKDEL

Assays:
[1] = biological target: human IL-4R overexpressed on glioblastoma cells (LN229-IL4R, U87-IL4R, U251-IL4R) (human) (UniProt P24394); test: flow cytometry, U251-IL4R cells, 0.246914 ug/mL
[2] = biological target: human IL-4R overexpressed on glioblastoma cells (LN229-IL4R, U87-IL4R, U251-IL4R) (human) (UniProt P24394); test: flow cytometry, U87-IL4R cells, 6.666667 ug/mL
[3] = biological target: human IL-4R overexpressed on glioblastoma cells (LN229-IL4R, U87-IL4R, U251-IL4R) (human) (UniProt P24394); test: flow cytometry, U251-IL4R cells, 20 ug/mL
[4] = biological target: human IL-4R overexpressed on glioblastoma cells (LN229-IL4R, U87-IL4R, U251-IL4R) (human) (UniProt P24394); test: flow cytometry, U251-IL4R cells, 6.666667 ug/mL
[5] = biological target: human IL-4R overexpressed on glioblastoma cells (LN229-IL4R, U87-IL4R, U251-IL4R) (human) (UniProt P24394); test: flow cytometry, LN229-IL4R cells, 0.082305 ug/mL
[6] = biological target: human IL-4R overexpressed on glioblastoma cells (LN229-IL4R, U87-IL4R, U251-IL4R) (human) (UniProt P24394); test: flow cytometry, LN229-IL4R cells, 0.027435 ug/mL
[7] = biological target: human IL-4R overexpressed on glioblastoma cells (LN229-IL4R, U87-IL4R, U251-IL4R) (human) (UniProt P24394); test: flow cytometry, U87-IL4R cells, 0.740741 ug/mL
[8] = biological target: human IL-4R overexpressed on glioblastoma cells (LN229-IL4R, U87-IL4R, U251-IL4R) (human) (UniProt P24394); test: flow cytometry, U87-IL4R cells, 20 ug/mL
[9] = biological target: human IL-4R overexpressed on glioblastoma cells (LN229-IL4R, U87-IL4R, U251-IL4R) (human) (UniProt P24394); test: flow cytometry, LN229-IL4R cells, 0.740741 ug/mL
[10] = biological target: human IL-4R overexpressed on glioblastoma cells (LN229-IL4R, U87-IL4R, U251-IL4R) (human) (UniProt P24394); test: flow cytometry, U251-IL4R cells, 0.082305 ug/mL
[11] = biological target: human IL-4R overexpressed on glioblastoma cells (LN229-IL4R, U87-IL4R, U251-IL4R) (human) (UniProt P24394); test: flow cytometry, LN229-IL4R cells, 6.666667 ug/mL
[12] = biological target: human IL-4R overexpressed on glioblastoma cells (LN229-IL4R, U87-IL4R, U251-IL4R) (human) (UniProt P24394); test: flow cytometry, LN229-IL4R cells, 0.246914 ug/mL
[13] = biological target: human IL-4R overexpressed on glioblastoma cells (LN229-IL4R, U87-IL4R, U251-IL4R) (human) (UniProt P24394); test: flow cytometry, U251-IL4R cells, 2.222222 ug/mL
[14] = biological target: human IL-4R overexpressed on glioblastoma cells (LN229-IL4R, U87-IL4R, U251-IL4R) (human) (UniProt P24394); test: flow cytometry, U251-IL4R cells, 0.740741 ug/mL
[15] = biological target: human IL-4R overexpressed on glioblastoma cells (LN229-IL4R, U87-IL4R, U251-IL4R) (human) (UniProt P24394); test: flow cytometry, U87-IL4R cells, 0.082305 ug/mL
[16] = biological target: human IL-4R overexpressed on glioblastoma cells (LN229-IL4R, U87-IL4R, U251-IL4R) (human) (UniProt P24394); test: flow cytometry, U87-IL4R cells, 0.027435 ug/mL
[17] = biological target: human IL-4R overexpressed on glioblastoma cells (LN229-IL4R, U87-IL4R, U251-IL4R) (human) (UniProt P24394); test: flow cytometry, LN229-IL4R cells, 20 ug/mL
[18] = biological target: human IL-4R overexpressed on glioblastoma cells (LN229-IL4R, U87-IL4R, U251-IL4R) (human) (UniProt P24394); test: flow cytometry, U251-IL4R cells, 0.027435 ug/mL
[19] = biological target: human IL-4R overexpressed on glioblastoma cells (LN229-IL4R, U87-IL4R, U251-IL4R) (human) (UniProt P24394); test: flow cytometry, U87-IL4R cells, 2.222222 ug/mL
[20] = biological target: human IL-4R overexpressed on glioblastoma cells (LN229-IL4R, U87-IL4R, U251-IL4R) (human) (UniProt P24394); test: flow cytometry, U87-IL4R cells, 0.246914 ug/mL
[21] = biological target: human IL-4R overexpressed on glioblastoma cells (LN229-IL4R, U87-IL4R, U251-IL4R) (human) (UniProt P24394); test: flow cytometry, LN229-IL4R cells, 2.222222 ug/mL
[22] = biological target: rhIL-4R-Fc (ILR-H5253, Acro) (human) (UniProt P24394); test: SPR Biacore 8K, rhIL-4R-Fc captured by anti-human IgG on CM5, immunotoxin as analyte
[23] = biological target: human IL-4R overexpressed on glioblastoma cells (LN229-IL4R, U87-IL4R, U251-IL4R) (human) (UniProt P24394); test: cell-based or functional assay
[24] = biological target: T1, rhIL-4R-Fc (ILR-H5253, Acro)

| Molecule | Mean MFI [1] [MFI] | Mean MFI [2] [MFI] | Mean MFI [3] [MFI] | Mean MFI [4] [MFI] | Mean MFI [5] [MFI] | Mean MFI [6] [MFI] | Mean MFI [7] [MFI] | Mean MFI [8] [MFI] | Mean MFI [9] [MFI] | Mean MFI [10] [MFI] | Mean MFI [11] [MFI] | Mean MFI [12] [MFI] | Mean MFI [13] [MFI] | Mean MFI [14] [MFI] | Mean MFI [15] [MFI] | Mean MFI [16] [MFI] | Mean MFI [17] [MFI] | Mean MFI [18] [MFI] | Mean MFI [19] [MFI] | Mean MFI [20] [MFI] | further results |
| --- | --- | --- | --- | --- | --- | --- | --- | --- | --- | --- | --- | --- | --- | --- | --- | --- | --- | --- | --- | --- | --- |
| hIgG1 isotype control (antibody) | 287 | 306 | 275 | 288 | 318 | 352 | 339 | 318 | 286 | 274 | 244 | 300 | 282 | 284 | 394 | 588 | 231 | 263 | 334 | 322 | Mean MFI [21]: 361 MFI |
| MDNA55 (ligand) | 8130 | 29700 | 22600 | 17500 | 8310 | 4470 | 21600 | 32700 | 16200 | 5860 | 21100 | 12400 | 13700 | 10700 | 12000 | 9120 | 24300 | 3180 | 25300 | 17100 | Kd [22]: 439 pM; koff [22]: 0.0029 s⁻¹; kon [22]: 6.62e+06 M⁻¹ s⁻¹; in vitro killing (CTG cell viability), LN229-IL4R cells [23]: 80%; Mean MFI [21]: 19400 MFI |
| B1 | – | – | – | – | – | – | – | – | – | – | – | – | – | – | – | – | – | – | – | – | Kd [24]: 101 pM; koff [24]: 0.000279 s⁻¹; kon [24]: 2.77e+06 M⁻¹ s⁻¹ |
